Data taken from the Immune Epitope Database (IEDB).

Key:
HLA-B*40:01 [1] = assay: IEDB peptide-MHC binding, purified MHC/competitive/radioactivity; filed as Kd, often an IC50 or EC50 that approximates it; ≥ and ≤ were set here for values at or beyond the usual limits of such assays
HLA-A*02:01 [2] = assay: IEDB peptide-MHC binding, purified MHC/direct/fluorescence; filed as Kd, often an IC50 or EC50 that approximates it; ≥ and ≤ were set here for values at or beyond the usual limits of such assays
HLA-A*02:01 [3] = assay: IEDB peptide-MHC binding, purified MHC/competitive/fluorescence; ≥ and ≤ were set here for values at or beyond the usual limits of such assays
HLA-A*26:01 = assay: IEDB peptide-MHC binding, purified MHC/competitive/radioactivity; filed as Kd, often an IC50 or EC50 that approximates it; ≥ and ≤ were set here for values at or beyond the usual limits of such assays
HLA-A*30:02 = assay: as above
HLA-A*24:02 = assay: as above
HLA-A*01:01 [4] = assay: as above
HLA-B*53:01 = assay: as above
HLA-A*33:01 = assay: as above; settings: source organism: Vaccinia virus WR
HLA-A*31:01 [5] = assay: as above; settings: source organism: Vaccinia virus WR
HLA-A*11:01 [6] = assay: as above; settings: source organism: Vaccinia virus WR
HLA-A*29:02 = assay: as above; settings: source organism: Vaccinia virus WR
HLA-A*03:01 [7] = assay: as above
HLA-A*68:01 = assay: as above; settings: source organism: Vaccinia virus WR
HLA-A*69:01 = assay: IEDB peptide-MHC binding, purified MHC/direct/fluorescence; filed as Kd, often an IC50 or EC50 that approximates it; ≥ and ≤ were set here for values at or beyond the usual limits of such assays
HLA-B*40:01 [8] = assay: as above; settings: source organism: Mycobacterium tuberculosis variant bovis
HLA-A*01:01 [9] = assay: as above; settings: source organism: Homo sapiens
HLA-A*03:01 [10] = assay: as above
HLA-A*31:01 [11] = assay: as above; settings: source organism: Plum pox virus
HLA-A*11:01 [12] = assay: as above; settings: source organism: Coxiella burnetii
HLA-B*07:02 = assay: as above; settings: source organism: Homo sapiens
HLA-B*58:01 = assay: as above; settings: source organism: Mammarenavirus juninense
[13] = source organism: Dengue virus 3 Martinique/1243/1999
[14] = source organism: Mycobacterium tuberculosis
[15] = source organism: Dengue virus 2 Jamaica/1409/1983
[16] = source organism: Dengue virus 4 Philippines/H241/1956
[17] = source organism: Zaire ebolavirus
[18] = source organism: Dengue virus 1 Brazil/97-11/1997
[19] = source organism: Dengue virus 1 Singapore/S275/1990
[20] = source organism: Vaccinia virus WR
[21] = source organism: Sudan ebolavirus
[22] = source organism: Vibrio parahaemolyticus
[23] = source organism: Mycobacterium tuberculosis variant bovis
[24] = source organism: Mammarenavirus guanaritoense
[25] = source organism: Mammarenavirus whitewaterense

AEPDGPTPEL
Kd (HLA-B*40:01 [1]; [13]): 10.7 nM

ALAAATPMV
Kd (HLA-A*02:01 [2]; [14]): 5.2 nM

ALFSSCPV
IC50 (HLA-A*02:01 [3]; source organism: Mus musculus): 291 nM

ALLDLGWTI
Kd (HLA-A*02:01 [2]; [14]): 0.9 nM

ATMTDDIGM
Kd (HLA-A*26:01; [15]): 8340 nM

AVVIVGLHGV
IC50 (HLA-A*02:01 [3]; source organism: Human alphaherpesvirus 1 strain 17): ≥ 50000 nM

AWNFLEVEDY
Kd (HLA-A*30:02; [16]): 85.3 nM

AYVVIGILTL
Kd (HLA-A*24:02; [13]): 938 nM

CSHHFHELV
Kd (HLA-A*01:01 [4]; [15]): ≥ 23400 nM

DVIPMVTQL
Kd (HLA-A*26:01; [16]): 112 nM

DVVDRGWGN
Kd (HLA-A*26:01; [16]): ≥ 77900 nM

EELPETMETL
Kd (HLA-B*40:01 [1]; [13]): 191 nM

EFIDGISLGL
Kd (HLA-A*26:01; [16]): 4720 nM

EGAFFLYDR
IC50 (HLA-A*02:01 [3]; [17]): ≥ 508000 nM

EPSKGWNDW
Kd (HLA-B*53:01; [18]): 1110 nM

ESEMIIPKIY
Kd (HLA-A*01:01 [4]; [19]): 6210 nM | Kd (HLA-A*30:02; [19]): 11700 nM | Kd (HLA-A*26:01; [19]): 19900 nM

ESMASLKSLY
Kd (HLA-A*33:01): 15900 nM | Kd (HLA-A*31:01 [5]): 3190 nM | Kd (HLA-A*11:01 [6]): 116 nM | Kd (HLA-A*29:02): ≥ 71400 nM | Kd (HLA-A*03:01 [7]; [20]): 7.63 nM | Kd (HLA-A*68:01): 4.63 nM

ETTKHAVSRG
Kd (HLA-A*26:01; [18]): ≥ 69700 nM

EVDSFSLGL
Kd (HLA-A*01:01 [4]; [19]): 10500 nM

FFLYDRLAS
IC50 (HLA-A*02:01 [3]; [21]): 40000 nM

FGVFTTNIW
Kd (HLA-B*53:01; [15]): 111 nM

FQLAAPSGF
Kd (HLA-A*02:01 [2]; [22]): 9000 nM | Kd (HLA-A*69:01; [22]): ≥ 20000 nM

GEPDARYEI
Kd (HLA-B*40:01 [8]): 70.2 nM

GETAWDFGSV
Kd (HLA-B*40:01 [1]; [16]): 388 nM

GEYRLRGEAR
Kd (HLA-B*40:01 [1]; [15]): 1900 nM

GMVPLHIPE
IC50 (HLA-A*02:01 [3]; [21]): ≥ 103000 nM

GSDGGLDDY
Kd (HLA-A*01:01 [9]): 58.1 nM | Kd (HLA-A*69:01; source organism: Homo sapiens): 1930 nM

GSQPGGPLK
Kd (HLA-A*03:01 [10]; [23]): 1570 nM

GTDAPCKIPF
Kd (HLA-A*01:01 [4]; [18]): ≥ 44700 nM

GTMHQEIFR
Kd (HLA-A*31:01 [11]): 41.9 nM | Kd (HLA-A*03:01 [10]; source organism: Plum pox virus): 83.9 nM

GVQPSATGR
Kd (HLA-A*03:01 [10]; [23]): ≥ 20000 nM

HPGAGKTKRY
Kd (HLA-B*53:01; [15]): ≥ 20200 nM

HVTRGAVLM
Kd (HLA-A*26:01; [15]): 4890 nM

IAGGMLIACY
Kd (HLA-A*30:02; [18]): 418 nM

IHLAIMAVF
Kd (HLA-A*24:02; [16]): 71.9 nM

IIVNNQESNK
Kd (HLA-A*33:01): ≥ 36200 nM | Kd (HLA-A*31:01 [5]): ≥ 29900 nM | Kd (HLA-A*11:01 [6]): 4400 nM | Kd (HLA-A*29:02): ≥ 68200 nM | Kd (HLA-A*03:01 [7]; [20]): 1130 nM | Kd (HLA-A*68:01): 3230 nM

ILCGWHLLK
Kd (HLA-A*11:01 [12]): 3.8 nM | Kd (HLA-A*03:01 [10]; source organism: Coxiella burnetii): 33.2 nM

ILQDMRNTI
Kd (HLA-A*02:01 [2]; source organism: Alto Paraguay hantavirus): 7.6 nM

IPYHIVNIV
Kd (HLA-A*69:01; source organism: Homo sapiens): 1340 nM | Kd (HLA-B*07:02): 3460 nM

KCDICTDEY
Kd (HLA-A*01:01 [9]): 806 nM

KERMVTFKV
Kd (HLA-B*40:01 [1]; [16]): 5760 nM

KLDPTNTLW
Kd (HLA-B*58:01): 66.9 nM

KLLPDTAAV
Kd (HLA-A*02:01 [2]; source organism: Amur virus): 2.1 nM

KLMSGKDVFY
Kd (HLA-A*01:01 [4]; [13]): 1480 nM | Kd (HLA-A*30:02; [13]): ≥ 69700 nM | Kd (HLA-A*03:01 [7]; [13]): 15.9 nM

KRHSTKYHL
Kd (HLA-A*30:02; [24]): ≥ 33300 nM | Kd (HLA-A*24:02; [24]): ≥ 60300 nM | Kd (HLA-A*26:01; [24]): ≥ 77900 nM

KYPNLNDLK
Kd (HLA-A*01:01 [4]; [25]): ≥ 41000 nM | Kd (HLA-A*30:02; [25]): 9570 nM | Kd (HLA-A*26:01; [25]): ≥ 77900 nM

LETRAETWM
Kd (HLA-B*40:01 [1]; [16]): 261 nM

LGLITNTIA
IC50 (HLA-A*02:01 [3]; [17]): 35300 nM

LIGLTARATW
Kd (HLA-B*53:01; [18]): 1810 nM
